Reference: article doi:10.1101/2021.03.20.21254037

target: truncated human ACE2 ectodomain (residues 19-613), AviTagged, biotinylated (human) (UniProt Q9BYF1); assay: BLI

Row | Substance | t½ (complex half-time) [min]
1 | SARS-CoV-2 RBD wild type (WHU1 isolate, amino acids 319-541) (from UniProt P0DTC2 319-541) (domain or fragment) | 1.4
2 | SARS-CoV-2 RBD natural variant N501Y (from UniProt P0DTC2 319-541) (domain or fragment) | 5.49
3 | SARS-CoV-2 RBD natural variant Q493L (from UniProt P0DTC2 319-541) (domain or fragment) | 3.52
4 | SARS-CoV-2 RBD natural variant S477N (from UniProt P0DTC2 319-541) (domain or fragment) | 2.68
5 | SARS-CoV-2 RBD natural variant N439K (from UniProt P0DTC2 319-541) (domain or fragment) | 1.85
